# Measurements published in patent publication US20230103583A1 (NORTHWESTERN UNIVERSITY, published 2023).
# Target: Tie2 receptor on HUVEC (human, UniProt Q02763 23-1124)
# Assay: cell-based or functional assay
# Sequence of Tie2 receptor on HUVEC (Q02763 23-1124): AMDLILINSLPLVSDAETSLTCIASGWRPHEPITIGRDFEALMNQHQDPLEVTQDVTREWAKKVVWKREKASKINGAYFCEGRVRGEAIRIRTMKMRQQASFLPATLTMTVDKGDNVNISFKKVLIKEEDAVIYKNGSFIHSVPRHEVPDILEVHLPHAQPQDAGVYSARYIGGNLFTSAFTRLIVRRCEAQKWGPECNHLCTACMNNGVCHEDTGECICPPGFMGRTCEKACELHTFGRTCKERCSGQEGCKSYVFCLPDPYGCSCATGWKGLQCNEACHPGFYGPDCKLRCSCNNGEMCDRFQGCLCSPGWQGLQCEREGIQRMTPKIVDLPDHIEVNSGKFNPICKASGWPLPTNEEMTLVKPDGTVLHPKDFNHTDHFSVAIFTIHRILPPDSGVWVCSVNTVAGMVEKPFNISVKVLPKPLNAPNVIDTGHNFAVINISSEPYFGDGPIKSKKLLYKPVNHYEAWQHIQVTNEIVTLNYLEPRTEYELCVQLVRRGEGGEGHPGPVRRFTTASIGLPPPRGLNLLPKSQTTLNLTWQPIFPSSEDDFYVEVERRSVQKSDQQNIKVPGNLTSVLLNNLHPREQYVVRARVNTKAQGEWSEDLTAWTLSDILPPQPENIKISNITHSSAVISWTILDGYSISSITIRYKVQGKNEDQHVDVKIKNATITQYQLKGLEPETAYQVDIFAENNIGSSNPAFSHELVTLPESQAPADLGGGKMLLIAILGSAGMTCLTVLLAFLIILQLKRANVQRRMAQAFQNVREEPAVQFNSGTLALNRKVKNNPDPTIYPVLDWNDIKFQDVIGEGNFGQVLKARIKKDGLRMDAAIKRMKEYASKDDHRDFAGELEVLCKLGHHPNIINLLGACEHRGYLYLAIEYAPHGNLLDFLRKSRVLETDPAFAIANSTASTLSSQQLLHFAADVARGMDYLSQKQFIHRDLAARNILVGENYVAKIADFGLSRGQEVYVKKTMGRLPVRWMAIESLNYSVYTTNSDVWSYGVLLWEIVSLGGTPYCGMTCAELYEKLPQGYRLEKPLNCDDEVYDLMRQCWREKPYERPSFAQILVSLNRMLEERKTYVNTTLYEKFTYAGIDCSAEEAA
binder,measurement,value
ANG1-C4BP (ligand) KPFRDCADVYQAGFNKSGIYTIYINNMPEPKKVFCNMDVNGGGWTVIQHREDGSLDFQRGWKEYKMGFGNPSGEYWLGNEFIFAITSQRQYMLRIELMDWEGNRAYSQYDRFHIGNEKQNYRLYLKGHTGTAGKQSSLILHGADFSTKDADNDNCMCKCALMLTGGWWFDACGPSNLNGMFYTAGQNHGKLNGIKWHYFKGPSYSLRSTTMMIRPLDFGGGGSETPEGCEQVLTGKRLMQCLPNPEDVKMALEVYKLSLEIEQLELQRDSARQSTLDKELHHHHHH,phospho-AKT (pAKT) EC50 in HUVEC treated for 20 minutes,87 ng/mL
